Source: paper PMC3478282, “Probing the Putative Active Site of YjdL: An Unusual Proton-Coupled Oligopeptide Transporter from E. coli” (PLoS ONE, 2012)
Positions count from the first letter of the chain named. Like-named read-outs stand apart in the source and are kept apart here. Residues, ends and D or L forms follow the SMILES beside them.

Assays:
WT-YjdL = molecular target: T1, WT-YjdL (Escherichia coli, UniProt P39276); assay: cell-based; type: cell-based, E. coli; conditions: for IC50: IC50 (inhibition of β-Ala-Lys(AMCA) uptake), WT-YjdL a
T1 construct: expressed in transfected cells; host or cells: E. coli BL21(DE3)pLysS, pTTQ18-yjdL, IPTG-induced
T1 sequence (P39276 1-485): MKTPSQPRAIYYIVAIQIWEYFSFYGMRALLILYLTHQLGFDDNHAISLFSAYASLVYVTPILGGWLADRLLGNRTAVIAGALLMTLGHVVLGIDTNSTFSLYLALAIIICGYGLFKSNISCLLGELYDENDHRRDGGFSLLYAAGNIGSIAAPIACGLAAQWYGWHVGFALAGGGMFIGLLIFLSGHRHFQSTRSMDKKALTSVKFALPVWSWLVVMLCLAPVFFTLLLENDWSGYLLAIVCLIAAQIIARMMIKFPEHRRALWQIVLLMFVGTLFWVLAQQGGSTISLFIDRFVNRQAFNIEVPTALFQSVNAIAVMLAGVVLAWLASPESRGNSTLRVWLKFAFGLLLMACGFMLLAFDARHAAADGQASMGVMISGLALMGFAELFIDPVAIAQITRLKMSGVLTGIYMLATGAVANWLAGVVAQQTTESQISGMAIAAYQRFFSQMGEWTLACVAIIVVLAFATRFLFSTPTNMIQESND
Experimental: (§1) Plasmids were transformed into E. coli BL21(DE3)pLysS cells by heat shock and transformants were selected on agar plates containing 100 µg/mL ampicillin and 34 µg/mL chloramphenicol. Single transformants were inoculated into 2 mL LB-media with antibiotics as above and grown overnight. The cultures were diluted 1∶50 in 5 mL LB-media with antibiotics as above, and at an OD600 of 0.5–0.8 protein expression was induced by the addition of 1 mM isopropyl β-D-1-thiogalactopyranoside (IPTG). […]
(§2) Uptake assays were performed as previously described, [20]. In a final assay volume of 100 µL; 0.2 mM β-Ala-Lys-N-7-amino-4-methylcoumarin-3-acetic acid (β-Ala-Lys(AMCA), Biotrend) (10 µL) and various concentrations of ligands (purchased from Bachem or Sigma-Aldrich) or uptake buffer (50 µL) were incubated with bacterial cell suspension (OD600 = 10, 40 µL) at 37°C. After 5 min, the uptake was stopped by addition of 500 µL ice-cold uptake buffer followed by immediate centrifugation and washing twice in ice-cold uptake buffer. Finally the cell pellet was resuspended in 100 µL uptake buffer, and the uptake was quantified by fluorescence measurements (excitation at 340 nm and emission at 460 nm) on a Safire 2 fluorimeter. Non-specific uptake was measured as described above on IPTG-induced E. coli BL21(DE3)pLysS cells harboring the empty pTTQ18 vector. All uptake assay experiments were reproduced at least three times independently and data analyses were performed using GraphPad Prism ver. 5.

YjdL Tyr25Phe = molecular target: T2, YjdL Tyr25Phe (Escherichia coli, UniProt P39276, Y25F); assay: β-Ala-Lys(AMCA) uptake and inhibition assay, YjdL Tyr25Phe; type: cell-based, E. coli; conditions: 0.2 mM β-Ala-Lys(AMCA), 5 min incubation, pH 6.5; ±SEM, n≥3
T2 construct: expressed in transfected cells; host or cells: E. coli BL21(DE3)pLysS, pTTQ18-yjdL mutant (QuikChange)
T2 sequence (P39276 1-485 Y25F): T1 sequence (P39276 1-485) with Y25F
Experimental: (§3) Plasmids were transformed into E. coli BL21(DE3)pLysS cells by heat shock and transformants were selected on agar plates containing 100 µg/mL ampicillin and 34 µg/mL chloramphenicol. Single transformants were inoculated into 2 mL LB-media with antibiotics as above and grown overnight. The cultures were diluted 1∶50 in 5 mL LB-media with antibiotics as above, and at an OD600 of 0.5–0.8 protein expression was induced by the addition of 1 mM isopropyl β-D-1-thiogalactopyranoside (IPTG). The cells were harvested after three hours of induction by centrifugation and resuspended in uptake buffer (50 mM MES pH 6.5, 140 mM NaCl, 5.4 mM KCl, 1.8 mM CaCl2, 0.8 mM MgSO4, and 5 mM glucose).
as §2

YjdL Ala281Phe = molecular target: T3, YjdL Ala281Phe (Escherichia coli, UniProt P39276, A281F); assay: β-Ala-Lys(AMCA) uptake and inhibition assay, YjdL Ala281Phe; type: cell-based, E. coli; conditions: for IC50: 0.2 mM β-Ala-Lys(AMCA), 5 min incubation, pH 6.5, ±SEM, n≥3
T3 construct: host or cells: E. coli BL21(DE3)pLysS
T3 sequence (P39276 1-485 A281F): T1 sequence (P39276 1-485) with A281F
Experimental: as §3, §2

[1] = molecular target: YdgR from E. coli, wild type (E. coli MG1655) (UniProt P77304)
[2] = molecular target: YdgR-Tyr292Ala (E. coli MG1655) (UniProt P77304)
[3] = molecular target: YdgR-Tyr292Phe (E. coli MG1655) (UniProt P77304)
[4] = molecular target: YdgR-Tyr38Phe (E. coli MG1655) (UniProt P77304)
[5] = molecular target: YdgR-Tyr71Phe (E. coli MG1655) (UniProt P77304)
YjdL Tyr113Phe (E. coli) = YjdL Tyr113Phe (E. coli) (UniProt P39276)
YjdL Tyr21Phe (E. coli) = YjdL Tyr21Phe (E. coli) (UniProt P39276)
YjdL Tyr25Phe (E. coli) [6] = molecular target: YjdL Tyr25Phe (E. coli) (UniProt P39276)
YjdL Tyr58Phe (E. coli) = YjdL Tyr58Phe (E. coli) (UniProt P39276)
[7] = molecular target: YjdL from E. coli, wild type (E. coli) (UniProt P39276)
YjdL-Ala281Phe (E. coli) [8] = molecular target: YjdL-Ala281Phe (E. coli) (UniProt P39276)
YjdL-Trp278Phe (E. coli) = YjdL-Trp278Phe (E. coli) (UniProt P39276)
[9] = molecular target: YjdL from E. coli, wild type (E. coli) (UniProt P39276); remark: listed apart in the source
YjdL Tyr25Phe (E. coli) [10] = molecular target: YjdL Tyr25Phe (E. coli) (UniProt P39276); remark: listed apart in the source
[11] = molecular target: YjdL from E. coli, wild type (E. coli) (UniProt P39276); remark: listed apart in the source
YjdL-Ala281Phe (E. coli) [12] = molecular target: YjdL-Ala281Phe (E. coli) (UniProt P39276); remark: listed apart in the source
WT-YdgR = molecular target: T4, WT-YdgR (Escherichia coli, UniProt P77304); assay: cell-based; type: cell-based, E. coli; conditions: 25 mM Tris-HCl, 50 mM MOPS pH 7.4, 0.2 mM β-Ala-Lys(AMCA), 5 min
T4 construct: expressed in transfected cells; host or cells: E. coli BL21(DE3)pLysS, pTTQ18-ydgR, IPTG-induced
T4 sequence (P77304 1-500): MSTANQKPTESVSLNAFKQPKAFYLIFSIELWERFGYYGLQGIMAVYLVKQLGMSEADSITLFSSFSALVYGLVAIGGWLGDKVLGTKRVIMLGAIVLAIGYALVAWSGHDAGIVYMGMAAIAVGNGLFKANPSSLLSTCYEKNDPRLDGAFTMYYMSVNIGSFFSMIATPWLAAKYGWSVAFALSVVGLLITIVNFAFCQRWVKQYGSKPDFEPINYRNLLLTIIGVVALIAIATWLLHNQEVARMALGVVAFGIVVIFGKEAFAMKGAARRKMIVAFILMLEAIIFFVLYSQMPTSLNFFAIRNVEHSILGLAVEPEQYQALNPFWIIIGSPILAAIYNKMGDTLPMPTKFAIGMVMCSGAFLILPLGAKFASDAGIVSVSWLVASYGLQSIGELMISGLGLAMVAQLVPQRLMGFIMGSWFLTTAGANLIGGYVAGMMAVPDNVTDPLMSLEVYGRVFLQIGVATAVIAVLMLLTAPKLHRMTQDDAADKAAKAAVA
Experimental: as §1, §2

| Compound | increase of IC50 compared to the Ala-Lys value, WT-YjdL (WT-YjdL) | IC50 (WT-YjdL) | IC50 (YjdL Tyr25Phe) | IC50 (YjdL Ala281Phe) | IC50 of inhibition of β-Ala-Lys(AMCA) uptake into E. coli cells (0.2 mM substrate, 5 min, pH 6.5) (YjdL Tyr113Phe (E. coli)) | IC50 of inhibition of β-Ala-Lys(AMCA) uptake into E. coli cells (0.2 mM substrate, 5 min, pH 6.5) (YjdL Tyr21Phe (E. coli)) | IC50 of inhibition of β-Ala-Lys(AMCA) uptake into E. coli cells (0.2 mM substrate, 5 min, pH 6.5) (YjdL Tyr25Phe (E. coli) [6]) | IC50 of inhibition of β-Ala-Lys(AMCA) uptake into E. coli cells (0.5 mM substrate, 15 min, pH 6.5) (YjdL Tyr58Phe (E. coli)) | IC50 of inhibition of β-Ala-Lys(AMCA) uptake into E. coli cells (0.2 mM substrate, 5 min, pH 6.5) [7] | IC50 of inhibition of β-Ala-Lys(AMCA) uptake into E. coli cells (0.5 mM substrate, 15 min, pH 6.5) [7] | IC50 of inhibition of β-Ala-Lys(AMCA) uptake into E. coli cells (0.2 mM substrate, 5 min, pH 6.5) (YjdL-Ala281Phe (E. coli) [8]) | IC50 of inhibition of β-Ala-Lys(AMCA) uptake into E. coli cells (0.2 mM substrate, 5 min, pH 6.5) (YjdL-Trp278Phe (E. coli)) | β-Ala-Lys(AMCA) uptake (0.5 mM) left with 50 mM competitor, E. coli cells, pH 6.5 [9] | IC50 of inhibition of β-Ala-Lys(AMCA) uptake into E. coli cells (0.2 mM substrate, 5 min, pH 6.5) (YjdL Tyr25Phe (E. coli) [10]) | IC50 of inhibition of β-Ala-Lys(AMCA) uptake into E. coli cells (0.2 mM substrate, 5 min, pH 6.5) [11] | IC50 of inhibition of β-Ala-Lys(AMCA) uptake into E. coli cells (0.2 mM substrate, 5 min, pH 6.5) (YjdL-Ala281Phe (E. coli) [12]) | other results |
| --- | --- | --- | --- | --- | --- | --- | --- | --- | --- | --- | --- | --- | --- | --- | --- | --- | --- |
| CSCC[C@H](N)C(=O)N[C@@H](CCCCN)C(=O)O [Met-Lys] (H-Met-Lys-OH) | approximately 2 fold | 530 ± 30 µM | 610 ± 20 µM | 170 ± 10 µM |  |  |  |  |  |  |  |  |  |  |  |  |  |
| NCCCC[C@H](NC(=O)[C@@H](N)Cc1c[nH]c2ccccc12)C(=O)O [Trp-Lys] (H-Trp-Lys-OH) | approximately 2 fold | 600 ± 70 µM | 580 ± 60 µM | 90 ± 10 µM |  |  |  |  |  |  |  |  |  |  |  |  |  |
| NCCCC[C@H](NC(=O)[C@@H](N)Cc1ccc(O)cc1)C(=O)O [Tyr-Lys] (H-Tyr-Lys-OH) | approximately 2 fold | 550 ± 40 µM | 670 ± 80 µM | 30 µM |  |  |  |  |  |  |  |  |  |  |  |  | decrease of IC50 compared to Ala-Lys, Ala281Phe (YjdL Ala281Phe): approximately 10 fold |
| Ala-Ala (peptide) |  |  |  |  | 1.9 mM | 4.5 mM | > 50 mM | 28.1 mM | 2.8 mM | 2.2 mM | > 50 mM | 9.9 mM | < 10% |  |  |  | IC50 of inhibition of β-Ala-Lys(AMCA) uptake into E. coli cells (0.2 mM substrate, 5 min, pH 6.5) [1]: 0.39 mM; IC50 of inhibition of β-Ala-Lys(AMCA) uptake into E. coli cells (0.5 mM substrate, 15 min, pH 6.5) [1]: 1.04 mM; IC50 of inhibition of β-Ala-Lys(AMCA) uptake into E. coli cells (0.2 mM substrate, 5 min, pH 6.5) [2]: 0.59 mM; IC50 of inhibition of β-Ala-Lys(AMCA) uptake into E. coli cells (0.2 mM substrate, 5 min, pH 6.5) [3]: 0.15 mM; IC50 of inhibition of β-Ala-Lys(AMCA) uptake into E. coli cells (0.5 mM substrate, 15 min, pH 6.5) [4]: 0.92 mM; IC50 of inhibition of β-Ala-Lys(AMCA) uptake into E. coli cells (0.2 mM substrate, 5 min, pH 6.5) [5]: 0.37 mM |
| Ala-Gln (peptide) |  |  |  |  | 1.1 mM | 1.1 mM | 36.1 mM | 2.5 mM | 0.6 mM | 1.9 mM | 21.7 mM | 0.9 mM | < 10% |  |  |  |  |
| Met-Lys (peptide) |  |  |  |  |  |  |  |  |  |  |  |  |  | 0.61 mM | 0.53 mM | 0.17 mM |  |
| Tris |  |  |  |  |  |  |  |  |  |  |  |  |  |  |  |  | inhibition of β-Ala-Lys(AMCA) uptake, WT-YdgR (WT-YdgR): no significant inhibition; inhibition of β-Ala-Lys(AMCA) uptake, WT-YjdL (WT-YjdL; 25 mM Tris-HCl, 50 mM MOPS pH 7.4, 0.2 mM β-Ala-Lys(AMCA), 5 min): weak |
| Trp-Lys (peptide) |  |  |  |  |  |  |  |  |  |  |  |  |  | 0.58 mM | 0.6 mM | 0.09 mM |  |
| Tyr-Ala (peptide) |  |  |  |  | 1.3 mM | 4.7 mM | 33.7 mM | 24.1 mM | 2.4 mM | 2.4 mM | 33.2 mM | 2.8 mM | < 10% |  |  |  |  |
| Tyr-Lys (peptide) |  |  |  |  |  |  |  |  |  |  |  |  |  | 0.67 mM | 0.55 mM | 0.03 mM |  |
